Drawing on paper PMC7503452, this text covers Kd for one molecule.

Holding throughout (assay): fluorescence anisotropy
A general note: In fluorescence polarisation assays a small probe gives low polarisation when free and higher when bound to something large.

The target of data set [1] is A3H Hap I K117E (human, UniProt Q6NTF7 1-200, K117E).
Data set [2] has as its target A3H Hap I K117E/K121E (human, UniProt Q6NTF7 1-200, K117E;K121E).
Data set [3] deals with A3H Hap II (human, UniProt Q6NTF7 1-181, G105R;K121D;E178D).
Sequence of A3H Hap II (Q6NTF7 1-181 G105R/K121D/E178D): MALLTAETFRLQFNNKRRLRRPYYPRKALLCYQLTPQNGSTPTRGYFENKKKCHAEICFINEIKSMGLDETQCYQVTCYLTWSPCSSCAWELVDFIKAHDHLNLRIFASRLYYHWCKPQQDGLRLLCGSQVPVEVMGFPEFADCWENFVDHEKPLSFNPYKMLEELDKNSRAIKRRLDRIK
Data set [4] has as its target A3H Hap VII (human, UniProt Q6NTF7 1-200, G105R).

As usually defined, the Kd is the concentration at which binding is half-saturated. High values mean lower affinity, low ones higher affinity.

Sequence of A3H Hap I K117E/K121E (Q6NTF7 whole entry K117E/K121E): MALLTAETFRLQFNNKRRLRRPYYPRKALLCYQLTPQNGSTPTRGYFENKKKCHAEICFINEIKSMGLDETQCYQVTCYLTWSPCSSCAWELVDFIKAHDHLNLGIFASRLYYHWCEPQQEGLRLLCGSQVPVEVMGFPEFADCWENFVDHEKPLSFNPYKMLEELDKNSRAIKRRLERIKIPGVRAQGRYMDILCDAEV
Sequence of A3H Hap VII (Q6NTF7 whole entry G105R): as the sequence (Q6NTF7 whole entry K117E/K121E) above, with G105R, E117K, E121K counted along it
Sequence of A3H Hap I K117E (Q6NTF7 whole entry K117E): as the sequence (Q6NTF7 whole entry K117E/K121E) above, with E121K counted along it

B1: 118-nt ssDNA (ssDNA)
DNA: GAATATAGTTTTTAGCTCAAAGTAAGTGAAGATAATTTAGAGAGTTGTAATGTGATATATGTGTATGAAAGATATAAGACTCAAAGTGAAAAGTTGTTAATGTGTGTAGATATGTTAA
modifications: internal fluorescein-dT at position 37
As for B1, the Kd worked out at 3000 ± 1770 nM in data set [1], 1240 ± 88 nM in data set [2], 492 ± 28 nM in data set [3] and 522 ± 4 nM in data set [4].
